Results published in PMC1820849, “Identification of a Small TAF Complex and Its Role in the Assembly of TAF-Containing Complexes” (PLoS ONE, 2007).

B1: CFP-TAF6 (natural protein)
chain: not shown
notes: TAF6 as a CFP fusion; the construct is not described; source: HeLa cells, transfected, in living cells
B2: CFP-TAF8 (natural protein, UniProt Q7Z7C8 1-310, looked up)
chain: MADAAATAGAGGSGTRSGSKQSTNPADNYHLARRRTLQVVVSSLLTEAGFESAEKASVETLTEMLQSYISEIGRSAKSYCEHTARTQPTLSDIVVTLVEMGFNVDTLPAYAKRSQRMVITAPPVTNQPVTPKALTAGQNRPHPPHIPSHFPEFPDPHTYIKTPTYREPVSDYQVLREKAASQRRDVERALTRFMAKTGETQSLFKDDVSTFPLIAARPFTIPYLTALLPSELEMQQMEETDSSEQDEQTDTENLALHISMEDSGAEKENTSVLQQNPSLSGSRNGEENIIDNPYLRPVKKPKIRRKKSLS
notes: TAF8 as a CFP fusion; vector described in earlier work; source: HeLa cells, transfected, in living cells

Legend:
Assay in all cases: FRET or BRET; sensitized emission FRET in the nucleus of living HeLa cells transfected with CFP and YFP fusion vectors; mean FRET efficiency of cells above a 5% threshold
Conditions in all cases: partners not purified
YFP-TAF9 = molecular target: T1, YFP-TAF9 (UniProt Q16594 1-264)
T1 construct: TAF9 as a YFP fusion; the construct is not described; source: HeLa cells, transfected, in living cells
T1 sequence (looked up): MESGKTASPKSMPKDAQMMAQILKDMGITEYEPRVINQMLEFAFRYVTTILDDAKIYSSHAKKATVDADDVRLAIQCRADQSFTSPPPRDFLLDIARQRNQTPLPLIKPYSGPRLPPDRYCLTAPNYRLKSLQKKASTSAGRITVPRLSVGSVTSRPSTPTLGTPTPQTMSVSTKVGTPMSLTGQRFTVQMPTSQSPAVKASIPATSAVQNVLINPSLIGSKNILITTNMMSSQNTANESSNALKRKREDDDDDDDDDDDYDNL

YFP-TAF10 = molecular target: T2, YFP-TAF10 (human, UniProt Q12962 1-218)
T2 construct: human TAF10 as a YFP fusion; vector described in earlier work; source: HeLa cells, transfected, in living cells
T2 sequence (Q12962 whole entry, the tested form may be a part): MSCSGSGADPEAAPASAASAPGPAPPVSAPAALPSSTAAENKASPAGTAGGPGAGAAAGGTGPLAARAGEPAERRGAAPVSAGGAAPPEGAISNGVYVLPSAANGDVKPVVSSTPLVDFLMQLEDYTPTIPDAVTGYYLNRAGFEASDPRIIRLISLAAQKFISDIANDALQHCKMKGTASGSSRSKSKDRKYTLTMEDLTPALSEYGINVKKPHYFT

YFP-SPT7L = molecular target: T3, YFP-SPT7L (human, UniProt O94864 1-414)
T3 construct: human SPT7L as a YFP fusion; vector described in earlier work; source: HeLa cells, transfected, in living cells
T3 sequence (looked up): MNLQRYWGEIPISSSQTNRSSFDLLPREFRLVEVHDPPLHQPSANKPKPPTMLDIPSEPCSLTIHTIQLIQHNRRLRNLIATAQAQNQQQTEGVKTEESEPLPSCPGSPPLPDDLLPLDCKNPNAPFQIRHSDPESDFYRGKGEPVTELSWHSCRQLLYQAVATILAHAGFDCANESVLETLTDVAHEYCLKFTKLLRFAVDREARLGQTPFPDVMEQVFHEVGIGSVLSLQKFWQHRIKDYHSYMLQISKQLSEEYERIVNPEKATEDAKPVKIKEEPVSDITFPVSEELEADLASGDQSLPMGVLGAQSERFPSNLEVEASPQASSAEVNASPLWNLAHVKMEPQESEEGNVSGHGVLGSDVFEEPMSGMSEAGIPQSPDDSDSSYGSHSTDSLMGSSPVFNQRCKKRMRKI

| Binder | FRET efficiency (YFP-TAF9) [%] | FRET efficiency (YFP-TAF10) [%] | FRET efficiency (YFP-SPT7L) [%] |
| --- | --- | --- | --- |
| B1 | 27.1 | – | – |
| B2 | – | 16.9 | 15.8 |
